From the supplement of paper PMC9112550, “Optimization of the antimicrobial peptide Bac7 by deep mutational scanning” (BMC Biology, 2022)

tested on: Escherichia coli TOP10; experiment: shrunken log2 fold change of peptide-encoding DNA abundance (4.5 h post-induction vs induction); higher = less antimicrobial activity (less host growth inhibition); conditions: time post-induction: 4.5 h; library: site-saturation at positions 5, 18, 19, 20
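Further: peptides expressed intracellularly from a pBAD plasmid library in pooled LB shake-flask culture, induced with 0.3% L-arabinose, DNA abundance read by NGS, three biological replicates, DESeq2 with apeglm shrinkage.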

Sequence | shrunken log2 fold change
RRIRKRPPRLPRPRPRPIRRPRP | 0.0536
RRIRLRPPRLPRPRPRPASQPRP | -0.18
RRIRIRPPRLPRPRPRPWLNPRP | -0.562
RRIRQRPPRLPRPRPRPDKQPRP | 0.0312
RRIRARPPRLPRPRPRPFRMPRP | -0.184
RRIRIRPPRLPRPRPRPWGMPRP | 0.0727
RRIRTRPPRLPRPRPRPCFSPRP | -0.3
RRIRSRPPRLPRPRPRPYFDPRP | -0.597
RRIRSRPPRLPRPRPRPQYEPRP | -0.355
RRIRNRPPRLPRPRPRPCKHPRP | -0.344
RRIRTRPPRLPRPRPRPKTIPRP | -0.292
RRIRKRPPRLPRPRPRPHRNPRP | -0.167
RRIRVRPPRLPRPRPRPQLWPRP | 0.0627
RRIRLRPPRLPRPRPRPGEFPRP | 2.05
RRIRYRPPRLPRPRPRPTMAPRP | 0.12
RRIRSRPPRLPRPRPRPDSCPRP | -0.0234
RRIRARPPRLPRPRPRPWPQPRP | 0.403
RRIRLRPPRLPRPRPRPDGIPRP | -0.0391
RRIRERPPRLPRPRPRPNGKPRP | -0.0394
RRIRIRPPRLPRPRPRPYKAPRP | -0.361
RRIRSRPPRLPRPRPRPYCAPRP | -0.698
RRIRNRPPRLPRPRPRPIDWPRP | 0.0533

Sequence | shrunken log2 fold change
RRIRMRPPRLPRPRPRPPHCPRP | 1.68
RRIRCRPPRLPRPRPRPRLAPRP | 0.559
RRIRHRPPRLPRPRPRPGDVPRP | -0.16
RRIRWRPPRLPRPRPRPYLRPRP | -0.37
RRIRMRPPRLPRPRPRPFSEPRP | 0.273
RRIRPRPPRLPRPRPRPNGGPRP | -0.305
RRIRKRPPRLPRPRPRPQRMPRP | 0.408
RRIRRRPPRLPRPRPRPMPPPRP | 0.676
RRIRMRPPRLPRPRPRPYYPPRP | -0.159
RRIRMRPPRLPRPRPRPLTSPRP | 0.0851
RRIRCRPPRLPRPRPRPENGPRP | -0.0135
RRIRNRPPRLPRPRPRPHPTPRP | -0.0363
RRIRMRPPRLPRPRPRPDPIPRP | -0.249
RRIRNRPPRLPRPRPRPMDYPRP | 0.0678
RRIRHRPPRLPRPRPRPRGIPRP | -0.0565
RRIRHRPPRLPRPRPRPYVQPRP | -1.29
RRIRGRPPRLPRPRPRPNFQPRP | 0.122
RRIRVRPPRLPRPRPRPYPKPRP | -0.858
RRIRTRPPRLPRPRPRPTAFPRP | 0.13
RRIRVRPPRLPRPRPRPVFWPRP | 0.378
RRIRTRPPRLPRPRPRPAHMPRP | -0.0928
RRIRMRPPRLPRPRPRPDRRPRP | -0.0127

Sequence | shrunken log2 fold change
RRIRMRPPRLPRPRPRPHLTPRP | -0.0375
RRIRNRPPRLPRPRPRPPIWPRP | -0.129
RRIRKRPPRLPRPRPRPDNCPRP | -0.0122
RRIRQRPPRLPRPRPRPKIEPRP | -0.32
RRIRFRPPRLPRPRPRPMAWPRP | -0.0344
RRIRHRPPRLPRPRPRPTAEPRP | 0.056
RRIRRRPPRLPRPRPRPILTPRP | 0.447
RRIRNRPPRLPRPRPRPEPAPRP | 0.88
RRIRLRPPRLPRPRPRPMSTPRP | -0.302
RRIRDRPPRLPRPRPRPSFFPRP | -0.168
RRIRPRPPRLPRPRPRPVQAPRP | -0.013
RRIRRRPPRLPRPRPRPKSMPRP | 0.0108
RRIRERPPRLPRPRPRPDQVPRP | -0.148
RRIRRRPPRLPRPRPRPAWEPRP | 0.301
RRIRKRPPRLPRPRPRPKMFPRP | -0.146
RRIRWRPPRLPRPRPRPYKDPRP | -0.33
RRIRQRPPRLPRPRPRPGHAPRP | 0.116
RRIRNRPPRLPRPRPRPEYCPRP | 0.00705
RRIRQRPPRLPRPRPRPEPEPRP | 0.813
RRIRFRPPRLPRPRPRPLYFPRP | -0.72
RRIRHRPPRLPRPRPRPDASPRP | 0.221
RRIRTRPPRLPRPRPRPLWNPRP | -0.44

Sequence | shrunken log2 fold change
RRIRRRPPRLPRPRPRPGFGPRP | 0.497
RRIRYRPPRLPRPRPRPMVFPRP | -0.00776
RRIRRRPPRLPRPRPRPQWAPRP | 0.0248
RRIRYRPPRLPRPRPRPFHSPRP | -0.0599
RRIRARPPRLPRPRPRPIPWPRP | 0.313
RRIRQRPPRLPRPRPRPELVPRP | -0.142
RRIRDRPPRLPRPRPRPNAYPRP | -0.043
RRIRSRPPRLPRPRPRPLKQPRP | -0.0432
RRIRVRPPRLPRPRPRPCLSPRP | -0.153
RRIRTRPPRLPRPRPRPMYDPRP | -0.161
RRIRNRPPRLPRPRPRPFNHPRP | -1.02
RRIRRRPPRLPRPRPRPGYHPRP | 0.456
RRIRYRPPRLPRPRPRPPPYPRP | -0.0871
RRIRNRPPRLPRPRPRPWESPRP | 0.291
RRIRMRPPRLPRPRPRPMASPRP | 0.00888
RRIRFRPPRLPRPRPRPVMEPRP | 0.352
RRIRNRPPRLPRPRPRPQVEPRP | 0.0172
RRIRGRPPRLPRPRPRPHQCPRP | -0.0129
RRIRLRPPRLPRPRPRPGSDPRP | -0.149
RRIRPRPPRLPRPRPRPVLFPRP | 0.118
RRIRGRPPRLPRPRPRPYAHPRP | 0.023
RRIRMRPPRLPRPRPRPQHKPRP | -0.0523

Sequence | shrunken log2 fold change
RRIRNRPPRLPRPRPRPVYTPRP | -0.361
RRIRLRPPRLPRPRPRPNKAPRP | -0.0163
RRIRQRPPRLPRPRPRPCMCPRP | -0.147
RRIRPRPPRLPRPRPRPQMRPRP | 0.806
RRIRMRPPRLPRPRPRPCIIPRP | -0.798
RRIRYRPPRLPRPRPRPWFEPRP | -0.2
RRIRCRPPRLPRPRPRPGEIPRP | 0.183
RRIRYRPPRLPRPRPRPEGDPRP | -0.00396
RRIRIRPPRLPRPRPRPCHSPRP | 0.00888
RRIRDRPPRLPRPRPRPCLYPRP | 0.0504
RRIRGRPPRLPRPRPRPYMIPRP | 0.0548
RRIRVRPPRLPRPRPRPPPNPRP | 0.73
RRIRVRPPRLPRPRPRPCSMPRP | -0.177
RRIRMRPPRLPRPRPRPQWNPRP | -0.149
RRIRPRPPRLPRPRPRPLNMPRP | -0.432
RRIRARPPRLPRPRPRPWWWPRP | 0.0143
RRIRGRPPRLPRPRPRPSWHPRP | 0.0802
RRIRSRPPRLPRPRPRPFNKPRP | -0.81
RRIRIRPPRLPRPRPRPPEHPRP | -0.037
RRIRCRPPRLPRPRPRPWGWPRP | 0.221
RRIRQRPPRLPRPRPRPLWYPRP | -0.367
